Source: patent US20170210824A1 (SALK INSTITUTE FOR BIOLOGICAL STUDIES, published 2017)
*1 amine or outer side, *2 acyl side, *3 side chain or, on linkers, in order; H or OH if unused. Where no end group is shown, it is not given here. [ ]: non-standard residue; d: D form. 3‑pTza = 3-phosphoryltriazolylalanine, non-hydrolysable phosphonate triazole analogue of 3-phosphohistidine, O=C([C@H](Cn1cc(P(=O)(O)O)nn1)N[*:1])[*:2]; pY = N[C@@H](Cc1ccc(OP(=O)(O)O)cc1)C(=O)O

Tests used:
[1] = molecular target: T1, Nck Y105 peptide (CGERLYDLNMPAYVK); experiment: pTyr peptide dot blot
T1 construct: also called unphosphorylated Nck peptide
T1 peptide: CGERLYDLNMPAYVK

[2] = molecular target: T2, Eck (Ephrin A2) Y588 peptide (CLKPLKTYVD); experiment: pTyr peptide dot blot
T2 construct: also called unphosphorylated Eck peptide
T2 peptide: CLKPLKTYVD

[3] = molecular target: T3, Eck (Ephrin A2) pY588 peptide (CLKPLKTpYVD); experiment: pTyr peptide dot blot
T3 construct: also called Eck/EphA2 pTyr peptide
T3 peptide: CLKPLKT[pY]VD

[4] = molecular target: T4, Nck pY105 peptide (CGERLpYDLNMPAYVK); experiment: pTyr peptide dot blot
T4 construct: also called pTyr (NCK) peptide; pTyr peptide (Nck pY105)
T4 peptide: CGERL[pY]DLNMPAYVK

[5] = molecular target: T5, FAK pY397 peptide (AVSVSETDDpYAEIIDEEDTYT) (phosphotyrosine at position 10 (pY397)); experiment: pTyr peptide dot blot
T5 construct: also called FAK pTyr peptide
T5 peptide: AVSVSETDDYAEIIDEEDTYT

[6] = molecular target: T6, Peptide-3C (NME1 H118, 3-pTza) (mammalian, N-terminus assumed; SMILES …); experiment: 3-pTza peptide dot blot array
T6 construct: also called RNII-3-pTza-GSDS
T6 peptide: RNII[3‑pTza]GSDS-NH2
Method: (§1) The 3-pHis antibodies bound only the 3-pTza peptides and the 1-pHis antibodies bound only the 1-pTza peptides, regardless of sequence (FIG. 4A). Identical membranes were probed with 1-pHis mAbs as part of our screening process to select mAbs with the broadest sequence recognition (FIG. 4B). […] 3-pHis mAb SC39-4 was able to detect all 3-pTza peptides down to 800 pg; however, binding to the KCa3.1 peptide was relatively poor (100 ng). […] SC44 detected the A/G motif peptide (based on ACLY) and the immunizing peptide library down to 160 pg and 800 pg respectively, confirming its sequence bias.
(§2) pTza peptide dot blot arrays: 1-pTza, 3-pTza or His was incorporated into synthetic peptides of defined sequences from mammalian proteins with mapped pHis sites. The peptides used were as follows: ACLY-like H760 (AGAG-X-AGAG, SEQ ID NO: 62), PGAM H11 (VLIR-X-GESA, SEQ ID NO: 63), NME1 H118 (RNII-X-GSDS, SEQ ID NO: 64), Histone H4 H18 (GAKR-X-RKVL, SEQ ID NO: 65), KCa3.1 H358 (VRLK-X-RKLR, SEQ ID NO: 66) and GNB1 H266 (MTYS-X-DNII, SEQ ID NO: 67) where X=His, 1-pTza or 3-pTza. Peptides were dissolved in water at a stock concentration of 1 mg/ml. 1:5 serial dilutions (500, 100, 20, […] ng/ul) were prepared for each peptide and 1 ul of each dilution was spotted on nitrocellulose membrane and allowed to dry for 1-2 hr at RT. […] Immunoblotting was performed as described above.

[7] = molecular target: T7, Peptide-4C (Histone H4 H18, 3-pTza) (mammalian, N-terminus assumed; SMILES …); experiment: 3-pTza peptide dot blot array
T7 construct: also called GAKR-3-pTza-RKVL
T7 peptide: GAKR[3‑pTza]RKVL-NH2
Method: as §1, §2

[8] = molecular target: T8, Peptide-2C (PGAM H11, 3-pTza) (mammalian, N-terminus assumed; SMILES …); experiment: 3-pTza peptide dot blot array
T8 construct: also called VLIR-3-pTza-GESA; PGAM peptide
T8 peptide: VLIR[3‑pTza]GESA-NH2
Method: as §1, §2

[9] = molecular target: T9, Peptide-1C (ACLY-like H760, 3-pTza) (N-terminus assumed; SMILES C[C@H](N)C(=O)NCC(=O)N[C@@H](C)C(=O)NCC(=O)N[C@@H](Cn1cc(P(=O)(O)O)nn1)C(=O)N[C@@H](C)C(=O)NCC(=O)N[C@@H](C)C(=O)NCC(N)=O); experiment: 3-pTza peptide dot blot array
T9 construct: also called AGAG-3-pTza-AGAG; A/G motif peptide (based on ACLY)
T9 peptide: AGAG[3‑pTza]AGAG-NH2
Method: as §1, §2

B1: 3-pHis mAb SC56-2 (antibody, V domains shown)
VH: SVKESEGGLIKPGGILTLTCTASGFSLSSYGFSWVRQAPGKGLEHIGYLHANGRAYYATWAKSRSTITRNTNLNTVTLQLTSLTAADTATYFCAKIGSVSDVAIWGPGTLVTVSS
VL: DPVMTQTPSSTSAAVGGTVTINCQSSESIYNNKNLAWYQQKPGQSPRRLIYSISTLASGVSSRFKGSGSGTQFTLTISDVQCDDAATYYCVGYYYSGGYYYSGSAAYYAFGGGTEVVVKG
notes: Rabbit hybridoma monoclonal IgG; also called SC56s (subclones of MC56)
binding result [1]: no binding
binding result [2]: no binding
binding result [3]: no binding
binding result [4]: no binding
binding result [5]: no binding
binding result [6]: binds
binding result [7]: binds
binding result [8]: binds
binding result [9]: binds
